In paper PMC3732525 (DNA repair, 2013):

Molecular target: the molecule itself
Assay: SEC

B1: S. cerevisiae Dmc1 (ScDmc1), N-terminally (His)6-tagged (natural protein, UniProt P25453 1-334, looked up)
chain: MSVTGTEIDSDTAKNILSVDELQNYGINASDLQKLKSGGIYTVNTVLSTTRRHLCKIKGLSEVKVEKIKEAAGKIIQVGFIPATVQLDIRQRVYSLSTGSKQLDSILGGGIMTMSITEVFGEFRCGKTQMSHTLCVTTQLPREMGGGEGKVAYIDTEGTFRPERIKQIAEGYELDPESCLANVSYARALNSEHQMELVEQLGEELSSGDYRLIVVDSIMANFRVDYCGRGELSERQQKLNQHLFKLNRLAEEFNVAVFLTNQVQSDPGASALFASADGRKPIGGHVLAHASATRILLRKGRGDERVAKLQDSPDMPEKECVYVIGEKGITDSSD
binding result: binds
